A short description of the series: self-splicing fitness, log relative to wild type (ln ratio); higher = more splicing; Tetrahymena group I intron in knt gene, E. coli kanamycin selection, DiMSum; sequences stand for … in CUCUCU…GGAGGGAAAAGUUAUCAGGCAUGCACCUGGUAGCUAGUCUUUAAACCAAUAGAUUGCAUCGGUUUAAAAGGCAAGACCGUCAAAUUGCGGGAAAGGGGUCAACAGCCGUUCAGUACCAAGUCUCAGGGGAAACUUUGAGAUGGCCUUGCAAAGGGUAUGGUAAUAAGCUGACGGACAUGGUCCUAACCACGCAGCCAAGUCCUAAGUCAACAGAUCUUCUGUUGAUAUGGAUGCAGUUCACAGACUAAAUGUCGGUCGGGGAAGAUGUAUUCUUCUCAUAAGAUAUAGUCGGACCUCUCCUUAAUGGGAGCUAGCGGAUGAAGUGAUGCAACACUGGAGCCGCUGGGAACUAAUUUGUAUGCGAAAGUAUAUUGAUUAGUUUUGGAGUACUCGUGGUCG
In short, it runs like this:
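Fitness was computed with DiMSum as the error-weighted combination of replicate fold changes, kanamycin versus none, each normalised to wild type. The library randomised all eight intron nucleotides of the P1ex region, with the intron placed in the knt kanamycin-resistance gene on pET-22b(+) in E. coli BL21(DE3). Six replicate transformations were grown overnight at 37°C or 30°C on LB agar with or without 25 μg/mL kanamycin, plus 100 μg/mL carbenicillin, 50 μM IPTG and 0.2% rhamnose. Pooled colonies were amplicon-sequenced on an Illumina HiSeq 2500.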

± gives the uncertainty stated by the source.

For the sequence CGCUAGCAAUAUUACGAACA, the “self-splicing fitness (ln)” value runs as follows: (30 °C) -0.88 ± 0.11; (37 °C) -0.227 ± 0.14.
On the same counts, the results for CGCUAGCAAUAUUACGACAG are -0.148 ± 0.059 and 0.297 ± 0.076.
On the same counts, the results for CGCUAGCAAUAUUACGACCA are -1.86 ± 0.093 and -1.24 ± 0.12.
For CGCUAGCAAUAUUACGAUGU, the “self-splicing fitness (ln)” value is, setting by setting: (30 °C) -2.56 ± 0.11; (37 °C) -1 ± 0.11.
The corresponding values for CGCUAGCAAUAUUACGCAAU are -2.44 ± 0.3 and -2.09 ± 0.36.
In the case of CGCUAGCAAUAUUACGCAGC, the “self-splicing fitness (ln)” value (37 °C) was -2.8 ± 0.33.
Turning to CGCUAGCAAUAUUACGCCGA, the “self-splicing fitness (ln)” value (30 °C) was -0.916 ± 0.21 and the “self-splicing fitness (ln)” value (37 °C) is -0.258 ± 0.15.
On the same counts, the results for CGCUAGCAAUAUUACGCUUA are -3.03 ± 0.33 and -2.75 ± 0.27.
On the same counts, the results for CGCUAGCAAUAUUACGGAUC are -3.32 ± 0.24 and -1.14 ± 0.15.
The corresponding values for CGCUAGCAAUAUUACGGGAA are -3.1 ± 0.22 and -2.76 ± 0.26.
For CGCUAGCAAUAUUACGGGCA, the “self-splicing fitness (ln)” value (30 °C) is -0.187 ± 0.07 and the “self-splicing fitness (ln)” value (37 °C) is -0.269 ± 0.079.
On the same counts, the results for CGCUAGCAAUAUUACGGUAA are -1.73 ± 0.1 and -2.12 ± 0.11.
For CGCUAGCAAUAUUACGGUAC, the “self-splicing fitness (ln)” value was -3.35 ± 0.23 (30 °C) and -1.95 ± 0.22 (37 °C).
On the same counts, the results for CGCUAGCAAUAUUACGGUCA are -0.0527 ± 0.076 and 0.137 ± 0.079.
The corresponding values for CGCUAGCAAUAUUACGGUUA are -2.22 ± 0.23 and -1.82 ± 0.2.
The corresponding values for CGCUAGCAAUAUUACGUAAG are -0.553 ± 0.073 and -0.0723 ± 0.1.
As for CGCUAGCAAUAUUACGUACA, the “self-splicing fitness (ln)” value (30 °C) was -2.62 ± 0.14 and the “self-splicing fitness (ln)” value (37 °C) was -1.35 ± 0.15.
The corresponding values for CGCUAGCAAUAUUACGUAUU are -3.85 ± 0.21 and -1.9 ± 0.18.
On to CGCUAGCAAUAUUACGUCGG, for which the “self-splicing fitness (ln)” value by setting is: (30 °C) -1.6 ± 0.075; (37 °C) -0.631 ± 0.12.
As to CGCUAGCAAUAUUACGUGAC, the “self-splicing fitness (ln)” value (37 °C) was -2.52 ± 0.3.
For CGCUAGCAAUAUUACGUGCA, the “self-splicing fitness (ln)” value reads like this: (30 °C) -0.672 ± 0.095; (37 °C) 0.116 ± 0.11.
As for CGCUAGCAAUAUUACGUGCG, the “self-splicing fitness (ln)” value is -3.74 ± 0.26 (30 °C) and -2.4 ± 0.22 (37 °C).
The corresponding values for CGCUAGCAAUAUUACGUGUU are -4.69 ± 0.29 and -3.17 ± 0.26.
Regarding CGCUAGCAAUAUUACGUUCG, the “self-splicing fitness (ln)” value by setting is: (30 °C) -1.46 ± 0.067; (37 °C) -0.781 ± 0.089.
On to CGCUAGCAAUAUUACGUUUG, for which the “self-splicing fitness (ln)” value is -2.31 ± 0.085 (30 °C) and -0.505 ± 0.094 (37 °C).
On to CGGAAGCAAUAUUACGAGCU, for which the “self-splicing fitness (ln)” value (30 °C) is -2.93 ± 0.21 and the “self-splicing fitness (ln)” value (37 °C) is -3.07 ± 0.27.
Regarding CGGAAGCAAUAUUACGAGUG, the “self-splicing fitness (ln)” value is -0.361 ± 0.05 (30 °C) and -0.0668 ± 0.075 (37 °C).
For CGGAAGCAAUAUUACGCAUA, the “self-splicing fitness (ln)” value (37 °C) is -1.12 ± 0.27.
In the case of CGGAAGCAAUAUUACGCCUC, the “self-splicing fitness (ln)” value is -3.04 ± 0.27 (30 °C) and -2.89 ± 0.4 (37 °C).
The corresponding values for CGGAAGCAAUAUUACGCUGU are -3.49 ± 0.15 and -1.3 ± 0.08.
Take CGGAAGCAAUAUUACGCUUA: the “self-splicing fitness (ln)” value (37 °C) was -2.15 ± 0.32.
CGGAAGCAAUAUUACGGAAA: the “self-splicing fitness (ln)” value (30 °C) was -1.12 ± 0.21 and the “self-splicing fitness (ln)” value (37 °C) is -2.23 ± 0.29.
On the same counts, the results for CGGAAGCAAUAUUACGGAGG are -1.25 ± 0.15 and -1.01 ± 0.21.
With CGGAAGCAAUAUUACGGGAC, under “30 °C”, the “self-splicing fitness (ln)” value was -3.5 ± 0.3.
For CGGAAGCAAUAUUACGGGCA, the “self-splicing fitness (ln)” value (30 °C) is -1.52 ± 0.16 and the “self-splicing fitness (ln)” value (37 °C) is -1.6 ± 0.19.

Source of the values: the supplement of paper PMC7877785.
